Data on 1 substance can be found in publication PMC9631991.

This assay has as its target biotinylated pro-LC3B (residues 1-125) (human) (UniProt Q9GZQ8). The experiment in a line: SPR; biotinylated LC3B constructs immobilised on NeutrAvidin-coated CM5 chips; ATG4b proteins flowed over, 0.2 nM~20 uM; 1X PBS, 0.5 mM TCEP, 0.05% Tween 20, 20 °C; Biacore 4000; 1:1 binding model. In general terms: Surface plasmon resonance follows binding to a sensor surface in real time, without labels.

For orientation: Kd means the concentration at which binding is half-saturated.

In turn, “ATG4b WT (full-length ATG4b) (from UniProt Q9Y4P1 1-393) (enzyme)” displayed a Kd of 321 nM.
